Values quoted from earlier work in PMC3347567.

Target: PEDF-R (Homo sapiens) (UniProt Q96AD5)
Sequence of UniProt Q96AD5 (Q96AD5 whole entry): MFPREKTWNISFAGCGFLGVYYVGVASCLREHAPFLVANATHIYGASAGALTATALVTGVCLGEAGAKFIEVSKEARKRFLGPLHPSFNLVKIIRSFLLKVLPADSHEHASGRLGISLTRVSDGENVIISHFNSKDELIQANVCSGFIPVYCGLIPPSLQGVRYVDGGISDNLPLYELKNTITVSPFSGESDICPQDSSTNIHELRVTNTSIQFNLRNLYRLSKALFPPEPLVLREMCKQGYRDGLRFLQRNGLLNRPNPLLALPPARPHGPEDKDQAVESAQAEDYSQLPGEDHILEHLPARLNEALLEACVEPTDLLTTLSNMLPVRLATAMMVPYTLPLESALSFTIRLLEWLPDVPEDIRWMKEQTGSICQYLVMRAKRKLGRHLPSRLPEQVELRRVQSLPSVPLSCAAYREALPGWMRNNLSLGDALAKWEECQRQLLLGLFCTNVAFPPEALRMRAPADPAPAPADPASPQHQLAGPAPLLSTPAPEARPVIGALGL

## PEDF (from UniProt P36955)
  Kd: 3.03 nM
